This note sets out measurements from the nanobody polyreactivity screen of Harvey et al. (2022).

The nature of this series: yeast display, Sf9 membrane polyspecificity reagent, FACS + sequencing; frameworks hold sequencing errors. In short, it runs like this: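 Polyreactivity labels are assigned by the sorting gate from which each nanobody was recovered. The gates were low and high (top ~1%), set on anti-HA fluorescence for expression and streptavidin fluorescence for reagent binding. Before sorting, galactose-induced (36–48 hours) yeast display cells were stained for 1 hour at 4 °C with 10% biotinylated, detergent-solubilized Sf9 membrane reagent.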
As to “QVQLVESGGGLVQAGGSLRLSCAASGFIFHQNAMGWYRQAPGKERELVAAITRSGTSTYYADSVKGRFTISRDNAKNTVYLQMNSLKPEDTAVYYCAACLPYGYGYDYWGQGTEVTVSS”, the “polyreactivity (PSR sort gate)” value was “low polyreactivity”. Turning to “QVQLVESGGGLVQAGGSLRLSCAASGFTFHRYDMVWYRQAPGKERELVAGITRRSGSTFYADSVKGRFTISRDNAKNTVYLQMNSLKPEDTAVYYCAATVPGMHWIYDYWGQGTQVTVSS”, the “polyreactivity (PSR sort gate)” value was “high polyreactivity”. Consider “QVQLVESGGGLVQAGGSLRLSCAASGFTFYYNAMGCYRQAPGKERELVAIRFRGGNTYYADSVKGRFTISRDNAKNTVYLQMNSLKPEDTAVYYCNADDRGSTYVDFDYWGQGTQVTVSS”, for which the “polyreactivity (PSR sort gate)” value is reported as “low polyreactivity”. Regarding “QVQLVESGGGLVQAGGSLRLSCAASGSTFGDYAMGWYRQAPGKERELVAAISARGASTYYADSVKGRFTISRDNAKNTVYLQMNSLKPEDTAVYYCAARYVSSGRRFDYCGQGTQVTVSS”, the “polyreactivity (PSR sort gate)” value is “high polyreactivity”.

For the sequence “QVQLVESGGGLVQAGGSLRLSCAASGRTFLFNGMGWYRQAPGKERELVASITRGGSTYADSVKGRFTISRDNAKNTVYLQMNSLKPEDTAVYYCAALTSRTYLWTTRPYDYWGQGTQVTVSS”, the “polyreactivity (PSR sort gate)” value is reported as “high polyreactivity”.

With “QVQLVESGGGLVQAGGSLRLSCAASGSILLEYAMGWYRQAPGKERELVAAISRGGTTNYADSVKGRFTISRDNAKNTVYLQMNSLKPEDTAVYYCAAGKIGRRGHQNRLDLDYWGQGTQVTVSS”, the “polyreactivity (PSR sort gate)” value was “low polyreactivity”. On to “QVQLVESGGGLVQAGGSLRLSCAASGSTFKQYAKGWYRQAPGKERELVAAISSVGRTYYADSVKGRFTISRDNAKNTVYLQINSLKPEDTAVYYCNRRWYTHWGQGTQVTVSS”, for which the “polyreactivity (PSR sort gate)” value was “high polyreactivity”.

As for “QVQLVESGGGLVQAGGSLRLSCAASGRTFGLYTMGWYRQAPGKERELVAAISRSGGSTYYADSVKGRFTISRDNAKNTVYLQMNSLKPEDTAVYYCATRRSFSDRYDYWGQGTQVTVSS”, the “polyreactivity (PSR sort gate)” value is given as “high polyreactivity”. The entry for “QVQLVESGGGLVQAGGSLRLSCAASGGTFDVYTMGWYRQAPGKERELVAAIDNGGSTNYADSVKGRFTISRDNAKHTVYLQMNSLKPEDTAVYYCAADEVYLFWGIAEFIYDYWGQGTQVTVSS” is “low polyreactivity”; for “QFQLVESVGGLVQAGGSLRISCAASGIIFYSYALGWYREAPGKERELVATISFSGDNTYYADSVKGRFTISRDNAKNTVYLQMNSLKPEDTAVYYCAKDLGYRGRYNYWGQGTQVTVSS” it is “low polyreactivity”; for “QVQLVESAAGLVQAGGSLSLSCAASGSILQSYAMGWYRQAPGKERELVAAISGSGGSTYYADSVKGRFTISRDNAKNTVYLQMNSLKPEDTAVYYCAKGPRYRTSRGEFGYWGQGTQVTLSS” it is “low polyreactivity”. For the sequence “QVQLVESGGGLVQAGGSLRLSCAASGSTFTGYAMGWYRQAPGKERELVASISYSGGSTYYADSVKGRFTISRDNAKNTVYLQMNSLKPEDTAVYYCNALQQYALSRYYWGQGTQVTVSS”, the “polyreactivity (PSR sort gate)” value is on record as “high polyreactivity”. In the case of “QVQLVESGGGLVQAGGSLRLSCAASGIIFTFNAMGWYRQAPGKERELVASISITGDTYYADSVKGRFTISRDNAKNTVYLQMNSLKPEDTAVYYCAAEYYFYSRHWYISYDYWGQGTQVTVSS”, the “polyreactivity (PSR sort gate)” value is listed as “low polyreactivity”. For “QVQLVESGGGLVQAGGSLRLSCAASGLTLGHNAMGWYRQAPGKERELVAAITNYADSVKGRFTISRDNAKNTVYLQMNSLKPEDTAVYYCAADWWRVEMDYWGQGTQVTVSS”, the “polyreactivity (PSR sort gate)” value is “low polyreactivity”. Take “QLQHVESGVGIVQAGRSLRLSCAASGRTFSHYAMGWYRQAPGKERELVAAIRWRGGSTYYADSVKGRFTISRDNAKNTVYLQMNSRKPEDTAVSYCAAVALYIWTHPSDYWGLGTQVTVSS”: the “polyreactivity (PSR sort gate)” value was “high polyreactivity”. On to “QVQLVESGGGLVQAGGSLRLSCAAAGFTFSVNAMGWYRQAPGKERELVAAISSRGSITYYADSVKGRFTISRDNAKNTVYLQMNSLKPEDTAVYYCNAYKYKSPGDYWGQGTQVTVSS”, for which the “polyreactivity (PSR sort gate)” value was “high polyreactivity”. For “QVQLVESGGGLVQAGGSLRLICAASGFTFDYNAMGWYRPAPVKERELVAAISGSGGSTFYADSVKGRFTISRDNAKNTVYLQMNSLKPEDTAVYYCNVYQHDDDFDYWGQGTQVTVSS”, the “polyreactivity (PSR sort gate)” value was “low polyreactivity”. With “QVQLVESGVGLVQAGGSLRLSCAASGSPFRRNALGWYRQAPGKERELVAAITWRGTSTYYADSVKGRFTISRDNAKNTVYLQMNSLIPEDTAVYYFATSKSRLRYDYWGQGTQVTVSS”, the “polyreactivity (PSR sort gate)” value is “high polyreactivity”. Take “QVQLVESGGGLVQAGGSLRLSCAASGTFAFYTMGWYRQAPGKERELVAAISWDGGDTYYADSVKGRFTISRDNAKNNVYLQMNSLKPEDTAVYYCAAELGYYVYGSYYSYDYCGQGTQVTVSS”: the “polyreactivity (PSR sort gate)” value is on record as “high polyreactivity”. “QVQLVDSGGGLVQAGGSLRLSCAASGFTFAYYAMGWYRQAPGKERELVAGISWRGGRTYYADSVKGRFTISRDNAKNTVYLQMNSLKPEDTAVYYCAKQPGNFGRFDYWGQGTKVTVSS”: the “polyreactivity (PSR sort gate)” value is listed as “high polyreactivity”. As for “QVQLEDSGGGLVQAGGSLRLSCAASGRIFGTNAMGWYRQAPGKERELVATITRGGGNTYYADSVKGRFTISRDNAKNTVYLQMNSLKPEDTAVYYCAAKFNRFAWYSHYDYWGQGTQVTVSS”, the “polyreactivity (PSR sort gate)” value was “low polyreactivity”. Regarding “QVQIVESGGGLVQAGGSLRLSCAASGFIFTAYAMGWYRPGPGKERELDAAISSSGTRTYYADSVKGRFTISRDYAKNTVYLQMNCLKPEDTAVYYCNKLYLVWNFYSGYDYSGQGTQVTVSS”, the “polyreactivity (PSR sort gate)” value is “high polyreactivity”.

With “QVQLVESGGGLVPAGGSLRLSCAASGSIFGKNAMGSYRQAPGNERELVAAITRRGGSTYYADSVKGRFTISRDNAKNTVYLQMNSLKAEDTAVYYCAAVSHYPAGYDYWGQGTQVTVSS”, the “polyreactivity (PSR sort gate)” value is reported as “high polyreactivity”.

In the case of “QDQLVESGGGLVQAGCSLRLSCAASGRIFSWYTMGWYRPAPGKERELVAVITSGGTTKYADSVKGRITISRDNAKNTVYLQMNSLKPEDTAVYYCNVAGRDYAVRWGSFDYWGQGTQVTVSS”, the “polyreactivity (PSR sort gate)” value is given as “low polyreactivity”. For “QVQLVESGGGLVQAGGSLRISCAASGRTFRFYVMGWYRKAPGKERELVAAISRGGGSTYYADSVKGRFTISRDNAKNTVYLQMNSLKPEDTAVYYCNAVTSGKKYVADYNYWGQGTQVTVSS”, the “polyreactivity (PSR sort gate)” value is reported as “high polyreactivity”.

On to “QVQLVESGGGLVQAGGSLRLSCAASGSTFVQYAMGWYRQAPGKERELVAAIRGRGDSTYYADSVKGRFTISRDNAKNTVYLQMNSLKPEDTAVYYCAARGQGSRGMYYWGQGTQVTVSS”, for which the “polyreactivity (PSR sort gate)” value is reported as “low polyreactivity”. On to “QVQLVESGGGLVQAGGSLRLSCAASGRIFDYYAMGWYRQAPGKERELVASISRSGGSTYYADSVKGRFTISRDNAKNTVYLQMNSLKPDDSAVYYCAASRGYYYGRVGYWGQGTQVTVSS”, for which the “polyreactivity (PSR sort gate)” value is on record as “high polyreactivity”.

In the case of “QVQLVESGGGLVQAGGSLRLSCAASRSTFAYYSMGWYRKEPGKETELVAAITRGGSTNYADSVKGRFRISRDNAKNTVLLQMNSLKPEDTAVYYCAAGDVQDYEYDYLGQGTQVTVSS”, the “polyreactivity (PSR sort gate)” value is recorded as “low polyreactivity”.

With “QVQLVESGGALVQAGCSLRLSCAASGITFAPYAKGWYRQAPGKEREMVAGINTGGSTYYADSVKGRFTISRDNAKYTVYLQMNSLKPEDTADYYCATESYPADQDIPGSDYWGQGTQVTVSS”, the “polyreactivity (PSR sort gate)” value is on record as “low polyreactivity”. Take “QVQLVESGGGLVQAGGSLRLSCAASGSIFDVNAMGWYRQAPGKERELVAAISDSGGSTYYADSVKGRFTISRDNAKNTVYLQMNSLKPEDTAVYYCNADWSWYNYYDLDYWGQGTQVTVSS”: the “polyreactivity (PSR sort gate)” value was “low polyreactivity”. As to “QVQLVESGGGLVHAGGSLRLSCAASGLTFYRYAMGWYRQAPGKERELVAAIRSNVVTTYYADSVKGRFTISRDNAKNTVYLQMNSLKPEDTAVYYCAARFGRSAQPGYDYWGQGTQVTVSS”, the “polyreactivity (PSR sort gate)” value was “high polyreactivity”.

In the case of “QVQLVESGGGLVQAGGSLRLSCAASGSIFSVYAMGWYRQAPGKEREFVASISGGSGRTYYADSVKGRFTISRDNAKNTVYLQMNSLKPEDTAVYYCDAVLRYTSLSHDYHYKYDYWGQGTQVTVSS”, the “polyreactivity (PSR sort gate)” value is listed as “low polyreactivity”. Take “QVQLVESGGGLVQAGGSLRLSCAASGFTFRKYTMGWYRQAPGKERELVAAISSGFSTNYADSVKGRFTISRDNAKNSVYLQMNSLKPEDTAVYYCAARGGYYQGRYKYGYWGQGTQVTVSS”: the “polyreactivity (PSR sort gate)” value is given as “high polyreactivity”. Take “QVQLEESGGGLVQAGGSLRLSCAASGIIFWEYAMGWYRQAPGKERELVAAINARGTRTYYADSVKGRFSISRDNAKNTVYLQMNSLKPEDTAVYYCAADRYGWTRYDSWGQGTQVTVSS”: the “polyreactivity (PSR sort gate)” value is listed as “high polyreactivity”. With “QVQLVESRGGLVQAGGSLRLSCAASGSIFGYYTMGWYRQAPGKDRELVAAISARGGRTYYADSVKGRFTISRDNAKNTVYLLMNSLKPEDTAVYYCAKRVYRRLYTGGQNPYDYWGQGTQVTVSS”, the “polyreactivity (PSR sort gate)” value is reported as “high polyreactivity”.

“QVQLVESGGGLVQAGASLRLSCAASGNTFIHNAMGRYRQAPGKERELVAAINWSGGRTYYADSVKGRFTISRDNAKNTVYLQMNCLKPEDTAVYYCARGTRWTYNMYYWGQGTQVTVSS”: the “polyreactivity (PSR sort gate)” value is recorded as “high polyreactivity”. On to “QVQLVESGGGLVQAGGSLRLSCAASGSTFGPNAMGWYRQAPGKERELVAAIRSQGGRTYYAYSVKGRFTISRDNAKNSVYLQMNSLIPEDTAVYYCGDPHYPYDTPYGYWGQGTQVTVSS”, for which the “polyreactivity (PSR sort gate)” value is reported as “low polyreactivity”. For the sequence “QVQLVESGGGLVQAGGSLRLSCAASGRIFRYYVMGWYRQAPGKERELVAAISRSGGTTYYADSVKGRFTISRDTATNTVYLQMNSLKREDTAVFYCAAVYGRDPGDYWGQGTQVTVSS”, the “polyreactivity (PSR sort gate)” value is recorded as “high polyreactivity”. With “QVQLVESGGGLVQAGGSLRLICAASGNIFYIYAMVWDRQAPWKERELVAAISWSCCSTYYADSVKGRFTISRDNAKNTVYCQMNSLKPEDTSVYYCDVEFTPKRWVSYRTMYSWGQGTQVTVSS”, the “polyreactivity (PSR sort gate)” value is “high polyreactivity”. Regarding “QVQLVESGGALVQAGGSLRLSCAASGSTFYGYAMGWYRQATGKERELVASITTRGGRTNYADSVKVRFTISRDNAKNTVYLEMNSLKPEDNSVYYCATYSYVTRYARWGEFDYWGQGTQVTVSS”, the “polyreactivity (PSR sort gate)” value is recorded as “high polyreactivity”. Regarding “QVQLVESGGGLVQAGGSLRLSWAASGSTFVHNAMGWYIQAPGKERELVAGISRTGGSTYYADSVKGRFTISRDNAKNTVYLQMNSLKPEDTAVYYCAVRYPRSWQFDYWGQGTQVNVSS”, the “polyreactivity (PSR sort gate)” value is recorded as “high polyreactivity”.
